The results in this text go back to patent US20250270315A1 (ELPISCIENCE SUZHOU BIOPHARMA, published 2025).

Read-outs that look alike come from different tables or passages of the source.

Experiment [1] addresses T1, cyno SIRPγ ECD recombinant protein (cyno).
T1 construct: extracellular domain
The experiment is described as follows: ELISA, cyno SIRPγ ECD. On the technique in general: An ELISA detects its analyte on a solid surface through an enzyme-linked reagent.

Experiment [2] concerns the target T2, human SIRPβ ECD recombinant protein (6×His tagged) (human, UniProt O00241 30-371).
T2 construct: extracellular domain; Bought from Sino Biological; also called hSIRPβ ECD; not shown: 6×His tag
The experiment is described as follows: ELISA, hSIRPβ ECD. The source says: (§1) Binding activity of the purified chimeric antibodies against SIRPβ and SIRPBI was detected by ELISA assay using recombinant proteins of human SIRPβ ECD (FIGS. 3A and 3B), human SIRPBI ECD (FIGS. 3D and 3E) and FACS assay using CHOK 1 cells stably expressing human SIRPB (FIG. 3C).

Experiment [3] addresses full length human SIRPα v1 with a small beta-gal fragment (ED) fused to its C-terminal, expressed in K562 … (human, UniProt P78324 31-504). The experiment is described as follows: cell-based or functional assay.
Experiment [4] concerns the target T3, human SIRPβ stably expressed on CHOK1 cells (human, UniProt O00241 30-398).
T3 construct: whole, on cells; also called CHOK1-human SIRPB; CHOK1-hSIRPβ
The experiment is described as follows: FACS, CHOK1-hSIRPβ cells.
Text: as §1

Experiment [5] concerns the target T4, C57BL/6 mouse SIRPα ECD recombinant protein (6×His tagged) (C57BL/6 mouse, UniProt P97797 32-373).
T4 construct: extracellular domain; Bought from Biointron; not shown: 6×His tag
T4 sequence (looked up): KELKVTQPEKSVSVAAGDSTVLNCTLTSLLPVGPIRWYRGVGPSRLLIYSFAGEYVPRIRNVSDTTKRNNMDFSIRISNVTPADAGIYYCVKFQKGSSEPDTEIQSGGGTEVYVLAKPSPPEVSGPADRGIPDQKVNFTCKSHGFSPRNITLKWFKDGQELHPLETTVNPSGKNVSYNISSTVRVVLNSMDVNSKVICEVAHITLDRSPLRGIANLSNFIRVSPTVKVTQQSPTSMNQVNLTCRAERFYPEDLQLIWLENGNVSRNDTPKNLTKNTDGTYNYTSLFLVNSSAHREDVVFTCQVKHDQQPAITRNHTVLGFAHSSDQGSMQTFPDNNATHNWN
The experiment is described as follows: ELISA, recombinant C57BL/6 mouse SIRPα ECD. The source says:
Species cross reactivity of purified chimeric antibodies was detected by ELISA assay using recombinant protein of C57BL/6 mouse SIRPα ECD (FIG. 5A) and FACS assay using CHOK 1 cells stably expressing cyno SIRPα (FIGS. 5B and 5C). All antibodies as tested bind to cyno SIRPα at different levels but have no species cross reactivity against C57BL/6 mouse SIRPα.

Experiment [6] has as its target T5, human SIRPα v1 ECD recombinant protein (tag not given) (human, UniProt P78324 31-373).
T5 construct: extracellular domain; also called biotin labeled soluble human SIRPα v1 ECD recombinant protein; ELISA microplate coated human SIRPα v1 ECD
Nature of the experiment: competitive ELISA, mFc-CD47 ECD on coated SIRPα v1 ECD. The procedure:
(§2) Competitive ELISA assay was used to determine whether the purified chimeric antibodies can block CD47 and SIRPα interaction. Briefly, antibody and mFc tagged human CD47 ECD recombinant protein were co-incubated with ELISA microplate coated human SIRPα v1 ECD (FIGS. 6A and 6B) or human SIRPα v2 ECD (FIGS. 7A and 7B) recombinant protein. After washing, HRP labeled anti-mouse Fc 2nd antibody (Sigma) was added and incubated at 37° C. for 1 hour. Then, 100 μl/well of TMB solution (Biotechnology) was added. After incubation for 15 minutes at room temperature, the reaction was stopped by the addition of 50 μl of 1N HCl. OD 450 nm was read. Blocking ratio was determined by blockade of human CD47 ECD recombinant protein binding to ELISA microplate coated human SIRPα ECD recombinant protein. Other than 005, all antibodies as tested can block interaction between human CD47 and different human SIRPα variants.
The humanized antibodies were tested for the ability to block CD47 and SIRPα interaction with competitive ELISA assay (refer to methods described in Example 4.2.3.).

In experiment [7] the target is T3, human SIRPβ stably expressed on CHOK1 …. Nature of the experiment: FACS, CHOK1-hSIRPβ cells (columns c6 and c7 read as swapped). The text has this:
All the humanized antibodies as tested were confirmed to retain the similar activity as the parental antibody of 025c to bind to SIRP family members.
For orientation: A flow cytometer gives signals particle by particle.

The target of experiment [8] is T6, human SIRPβL ECD recombinant protein (6×His tagged) (human, UniProt Q5TFQ8 30-371).
T6 construct: given variously as SIRPBL, SIRPBI and SIRPβI; Bought from Biointron; also called human SIRPBL ECD; human SIRPBI ECD
The experiment is described as follows: ELISA, hSIRPβI ECD.
Text: as §1

Experiment [9] addresses Human SIRPα v1 (antigen of the Octet and Biacore affinity measurements) (human, UniProt P78324 31-370, limits assumed). The experiment is described as follows: SPR (Biacore), 1:1 binding model. Here is the method:
The humanized antibodies were characterized for binding affinity against human SIRPα v1, human SIRPα v2 using Surface Plasmon Resonance technology (Biacore system). The association and dissociation curves were fit with 1:1 binding model, and the Ka/Kd/KD values for each antibody were calculated.
Background: In SPR one partner is held on a chip, and binding of the other changes the refractive index at the surface.

Experiment [10] has as its target T7, human SIRPα v2 ECD recombinant protein (tag not given) (human).
T7 construct: extracellular domain; also called ELISA microplate coated human SIRPα v2 ECD
The experiment is described as follows: competitive ELISA, coated human SIRPα v2 ECD, blocked ligand mFc tagged human CD47 ECD. The procedure:
as §2

Experiment [11] deals with T5, human SIRPα v1 ECD recombinant protein …. Nature of the experiment: competitive ELISA, mFc-CD47 ECD on coated SIRPα v1 ECD. The procedure: as §2
This is another data set of the same source.

T5 sequence (P78324 31-373): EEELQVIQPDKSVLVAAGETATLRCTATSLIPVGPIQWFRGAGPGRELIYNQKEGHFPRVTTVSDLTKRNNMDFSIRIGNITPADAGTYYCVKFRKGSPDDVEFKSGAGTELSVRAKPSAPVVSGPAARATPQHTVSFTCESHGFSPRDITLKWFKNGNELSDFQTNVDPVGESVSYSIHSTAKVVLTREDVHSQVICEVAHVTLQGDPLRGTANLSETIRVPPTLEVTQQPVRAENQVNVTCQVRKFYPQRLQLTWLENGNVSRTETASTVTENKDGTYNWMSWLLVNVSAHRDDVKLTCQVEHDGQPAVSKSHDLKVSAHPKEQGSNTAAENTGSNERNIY
T3 sequence (O00241 30-398): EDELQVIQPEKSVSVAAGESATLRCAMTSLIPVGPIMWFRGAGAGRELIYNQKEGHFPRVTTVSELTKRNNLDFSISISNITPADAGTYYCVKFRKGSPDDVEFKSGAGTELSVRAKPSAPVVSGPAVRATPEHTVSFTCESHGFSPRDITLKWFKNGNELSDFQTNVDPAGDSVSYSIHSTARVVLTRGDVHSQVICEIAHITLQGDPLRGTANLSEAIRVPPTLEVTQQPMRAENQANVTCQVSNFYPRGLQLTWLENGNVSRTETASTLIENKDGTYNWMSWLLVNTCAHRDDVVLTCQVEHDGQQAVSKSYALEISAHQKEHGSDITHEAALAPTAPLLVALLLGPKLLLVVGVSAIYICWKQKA
Human SIRPα v1 (antigen of the Octet and Biacore affinity measurements), sequence (P78324 31-370 limits assumed): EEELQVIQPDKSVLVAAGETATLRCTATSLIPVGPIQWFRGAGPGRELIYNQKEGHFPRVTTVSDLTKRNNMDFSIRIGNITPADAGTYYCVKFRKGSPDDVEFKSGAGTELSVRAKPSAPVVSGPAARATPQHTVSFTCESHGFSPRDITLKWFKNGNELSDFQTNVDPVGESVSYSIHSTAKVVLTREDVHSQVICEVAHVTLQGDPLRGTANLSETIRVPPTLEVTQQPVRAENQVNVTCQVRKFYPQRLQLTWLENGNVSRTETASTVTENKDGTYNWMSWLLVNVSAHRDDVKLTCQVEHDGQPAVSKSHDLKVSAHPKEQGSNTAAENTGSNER
full length human SIRPα v1 with a small beta-gal fragment (ED) fused to its C-terminal, expressed in K562 …, sequence (P78324 31-504): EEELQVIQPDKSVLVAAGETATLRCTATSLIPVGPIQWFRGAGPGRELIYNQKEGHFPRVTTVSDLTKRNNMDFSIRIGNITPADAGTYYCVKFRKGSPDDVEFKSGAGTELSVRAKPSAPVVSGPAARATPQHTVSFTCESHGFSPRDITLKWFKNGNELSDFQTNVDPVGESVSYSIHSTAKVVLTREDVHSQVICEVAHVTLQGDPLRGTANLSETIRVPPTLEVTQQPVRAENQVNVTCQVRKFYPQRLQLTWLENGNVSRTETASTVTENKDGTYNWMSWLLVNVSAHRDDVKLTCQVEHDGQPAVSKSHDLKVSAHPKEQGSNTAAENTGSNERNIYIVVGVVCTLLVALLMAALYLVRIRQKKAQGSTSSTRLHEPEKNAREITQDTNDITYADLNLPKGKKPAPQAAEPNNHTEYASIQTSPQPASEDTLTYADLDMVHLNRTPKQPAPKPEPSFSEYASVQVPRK
T2 sequence (O00241 30-371): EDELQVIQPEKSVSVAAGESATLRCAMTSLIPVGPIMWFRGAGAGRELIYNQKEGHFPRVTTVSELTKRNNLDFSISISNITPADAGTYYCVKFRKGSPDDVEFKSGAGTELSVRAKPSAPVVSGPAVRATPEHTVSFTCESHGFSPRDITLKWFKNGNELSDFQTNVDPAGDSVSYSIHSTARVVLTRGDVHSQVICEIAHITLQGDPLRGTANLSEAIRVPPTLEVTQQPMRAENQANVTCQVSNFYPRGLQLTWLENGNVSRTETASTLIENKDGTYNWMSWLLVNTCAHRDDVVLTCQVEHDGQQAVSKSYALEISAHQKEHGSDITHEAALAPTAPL
T6 sequence (Q5TFQ8 30-371 limits assumed): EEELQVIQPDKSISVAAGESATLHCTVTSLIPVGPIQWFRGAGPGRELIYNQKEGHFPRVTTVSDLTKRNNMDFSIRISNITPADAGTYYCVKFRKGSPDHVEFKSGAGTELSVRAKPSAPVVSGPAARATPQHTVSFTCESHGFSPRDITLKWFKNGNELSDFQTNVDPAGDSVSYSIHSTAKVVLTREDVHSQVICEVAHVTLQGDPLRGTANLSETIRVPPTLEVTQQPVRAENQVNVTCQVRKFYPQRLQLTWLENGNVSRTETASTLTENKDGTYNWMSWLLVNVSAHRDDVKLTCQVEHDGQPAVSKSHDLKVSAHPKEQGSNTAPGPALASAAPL

B1: 025c (antibody, V domains shown)
VH: EVQLQQSGAELVKPGASVKLSCTASGFNIKDYYMHWVKQRTEQGLEWIGRIDPEDGETKYAPKFQGKATITADTSSNTAYLQLSSLTSEDTAVYYCDRGLAYWGQGTLVTVSA
VL: QIVLTQSPAIMSASPGEKVTLTCSASSSVSSSYLYWYQQKPGSSPKLWIYSTSNLASGVPARFSGSGSGTSYSLTISSMEAEDAASYFCHQWSSYPYTFGGGTKLEIK
notes: also called chimeric antibody 025c; parental antibody of 025c
The EC50 is the midpoint of the concentration-response curve. As usually defined, the IC50 is the concentration that gives 50% inhibition. For orientation: Kd means the equilibrium constant for the complex coming apart. The koff is a measure of how fast the partners let go of each other. The term kon denotes a measure of how fast the partners come together. Low readings indicate slower complex formation, high ones faster complex formation. On to B1, for which, in experiment [1], the 50% effective concentration (EC50) came out at 0.36 nM and the “TOP OD450” value came to 3.07 OD450. Besides, in experiment [2], the EC50 was 0.04 nM and the “TOP OD450” value turned out to be 3.1 OD450. For the same molecule, in experiment [3], the “SHP-1 recruitment blocking, IC50” value turned out to be 0.08 nM and the “SHP-1 recruitment blocking, TOP blocking (%)” value was determined as 87%. In experiment [4], a half-maximal response (EC50) required 0.38 nM and the “TOP MFI” value stood at 10900 MFI. In experiment [5], the binding result is given as “no binding”. In experiment [6], the 50% inhibitory concentration (IC50) stood at 2.03 nM and the “TOP blocking (%)” value turned out to be 97.5%. Moreover, in [7], it took 0.65 nM to reach a half-maximal effect (EC50) and the “TOP MFI” value was 72300 MFI. In experiment [8], the EC50 worked out at 0.33 nM and the “TOP OD450” value was 2.8 OD450. Further, in experiment [9], the Kd was 1.53 nM, the koff amounted to 0.000924 s⁻¹ and the kon worked out at 602000 M⁻¹ s⁻¹. Besides, in experiment [10], the “IC50 (read off the curve)” value is approximately 2 nM. In addition, in experiment [11], the IC50 turned out to be 2.12 nM and the “TOP blocking (%)” value is 96.5%.
